From article PMC11844651, “How RAG1/2 evolved from ancestral transposases to initiate V(D)J recombination without transposition” (Research Square, 2025)

Molecular target: T1, mouse RAG1 (aa 265–1040) (mouse, UniProt P15919 265-1040)
T1 sequence (looked up): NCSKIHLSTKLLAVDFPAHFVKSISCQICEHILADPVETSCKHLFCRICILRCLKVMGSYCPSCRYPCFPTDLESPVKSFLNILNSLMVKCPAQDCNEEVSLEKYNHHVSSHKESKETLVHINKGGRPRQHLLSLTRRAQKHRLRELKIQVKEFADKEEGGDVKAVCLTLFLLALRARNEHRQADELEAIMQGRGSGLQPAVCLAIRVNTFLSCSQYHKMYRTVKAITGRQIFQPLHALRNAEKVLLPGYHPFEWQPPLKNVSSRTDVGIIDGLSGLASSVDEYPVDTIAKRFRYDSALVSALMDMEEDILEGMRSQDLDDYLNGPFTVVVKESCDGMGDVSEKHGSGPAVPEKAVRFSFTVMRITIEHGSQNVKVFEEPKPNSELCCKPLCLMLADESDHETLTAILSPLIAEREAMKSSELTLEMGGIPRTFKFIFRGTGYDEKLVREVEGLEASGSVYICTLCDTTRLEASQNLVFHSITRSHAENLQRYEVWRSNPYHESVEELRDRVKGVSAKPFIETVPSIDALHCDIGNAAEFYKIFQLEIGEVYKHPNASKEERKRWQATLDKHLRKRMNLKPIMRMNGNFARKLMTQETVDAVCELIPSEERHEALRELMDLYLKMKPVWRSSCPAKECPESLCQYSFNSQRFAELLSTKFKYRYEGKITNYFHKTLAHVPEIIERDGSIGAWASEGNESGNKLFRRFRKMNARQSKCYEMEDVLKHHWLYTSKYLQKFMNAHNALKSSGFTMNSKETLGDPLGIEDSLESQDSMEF
Experiment: cell-based or functional assay

B1: mouse T490A RAG2 (aa 1–520) (natural protein, UniProt P21784 1-520, looked up)
chain: MSLQMVTVGHNIALIQPGFSLMNFDGQVFFFGQKGWPKRSCPTGVFHFDIKQNHLKLKPAIFSKDSCYLPPLRYPATCSYKGSIDSDKHQYIIHGGKTPNNELSDKIYIMSVACKNNKKVTFRCTEKDLVGDVPEPRYGHSIDVVYSRGKSMGVLFGGRSYMPSTQRTTEKWNSVADCLPHVFLIDFEFGCATSYILPELQDGLSFHVSIARNDTVYILGGHSLASNIRPANLYRIRVDLPLGTPAVNCTVLPGGISVSSAILTQTNNDEFVIVGGYQLENQKRMVCSLVSLGDNTIEISEMETPDWTSDIKHSKIWFGSNMGNGTIFLGIPGDNKQAMSEAFYFYTLRCSEEDLSEDQKIVSNSQTSTEDPGDSTPFEDSEEFCFSAEATSFDGDDEFDTYNEDDEDDESVTGYWITCCPTCDVDINTWVPFYSTELNKPAMIYCSHGDGHWVHAQCMDLEERTLIHLSEGSNKYYCNEHVQIARALQAPKRNPPLQKPPMKSLHKKGSGKVLTPAKKS
**Q.** Which “RSS DNA hairpinning (pre-nicked RSS substrates) with the long (21 aa) H3K4me3 peptide (1 μM) against no peptide” value does the source give for B1 here?
**A.** < 2 fold

**Q.** What about the “transposition of SEC into supercoiled pUC19 (double-ended joint product) with the long (21 aa) H3K4me3 peptide (20 μM) against no peptide” value of the same binder?
**A.** 22 fold
